Assay results as given in patent US20250230251A1 (Bristol-Myers Squibb, published 2025).

Key:
huIL-18Rβ-HisAvi = target: T1, huIL-18Rβ-HisAvi (human, UniProt O95256 20-356, biotinylated in the Octet blocking assay); test: SPR T200, mAb on anti-hFc, 37C, pH 7.4; pH 7.4
T1 construct: Soluble analyte in all SPR runs; captured on streptavidin sensors in the Octet assay; also called human IL-18Rβ; human IL-18Rβ-Avi-His
T1 sequence: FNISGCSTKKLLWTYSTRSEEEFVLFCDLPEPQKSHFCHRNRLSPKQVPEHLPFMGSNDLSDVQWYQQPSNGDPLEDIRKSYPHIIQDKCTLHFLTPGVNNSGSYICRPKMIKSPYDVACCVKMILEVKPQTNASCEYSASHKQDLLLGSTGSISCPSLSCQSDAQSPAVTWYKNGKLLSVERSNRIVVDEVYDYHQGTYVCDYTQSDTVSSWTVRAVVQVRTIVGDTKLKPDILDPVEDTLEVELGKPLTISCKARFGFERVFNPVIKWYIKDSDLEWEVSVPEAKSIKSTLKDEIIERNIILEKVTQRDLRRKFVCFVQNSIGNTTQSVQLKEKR

human IL-18Rβ on cells = target: T2, human IL-18Rβ on cells (human, UniProt O95256 20-599); test: cell-based or functional assay
T2 sequence: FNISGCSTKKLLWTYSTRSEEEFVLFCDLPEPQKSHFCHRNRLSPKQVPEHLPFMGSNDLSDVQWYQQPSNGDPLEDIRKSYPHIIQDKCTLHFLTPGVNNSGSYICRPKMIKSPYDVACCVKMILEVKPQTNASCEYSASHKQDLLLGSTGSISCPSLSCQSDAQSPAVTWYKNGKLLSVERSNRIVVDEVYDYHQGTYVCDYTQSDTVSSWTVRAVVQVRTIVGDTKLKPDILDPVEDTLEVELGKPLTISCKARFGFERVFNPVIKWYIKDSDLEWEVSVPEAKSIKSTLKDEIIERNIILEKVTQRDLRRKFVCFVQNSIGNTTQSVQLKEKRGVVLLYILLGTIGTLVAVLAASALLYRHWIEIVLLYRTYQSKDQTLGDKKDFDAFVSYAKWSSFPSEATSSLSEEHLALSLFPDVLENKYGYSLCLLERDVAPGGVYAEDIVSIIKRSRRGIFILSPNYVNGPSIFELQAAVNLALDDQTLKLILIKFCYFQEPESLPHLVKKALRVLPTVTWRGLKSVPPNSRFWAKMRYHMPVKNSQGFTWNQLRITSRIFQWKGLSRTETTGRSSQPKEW

B1: P20 (antibody, human IgG1, kappa)
heavy: QVQLQQSGPGLVKPSETLSLTCTVSGGSINNYYWSWIRQPPGKGLEWIGYIFYSGTTNYNPSLKSRVTISVDTSKNQFSLKLSSVTAADTAVYYCARDVGIAARNSYYYVMDVWGQGTTVTVSSASTKGPSVFPLAPSSKSTSGGTAALGCLVKDYFPEPVTVSWNSGALTSGVHTFPAVLQSSGLYSLSSVVTVPSSSLGTQTYICNVNHKPSNTKVDKRVEPKSCDKTHTCPPCPAPEAEGAPSVFLFPPKPKDTLMISRTPEVTCVVVDVSHEDPEVKFNWYVDGVEVHNAKTKPREEQYNSTYRVVSVLTVLHQDWLNGKEYKCKVSNKALPAPIEKTISKAKGQPREPQVYTLPPSREEMTKNQVSLTCLVKGFYPSDIAVEWESNGQPENNYKTTPPVLDSDGSFFLYSKLTVDKSRWQQGNVFSCSVMHEALHNHYTQKSLSLSPG
light: AIQLTQSPSSLSASVGDRVTITCRASQGISSALAWYQQKPGKAPKFLIYDASSLESGVPSRFSGSGSGTDFTLTISSLQPEDFATYYCQQFNSYPITFGQGTRLEIKRTVAAPSVFIFPPSDEQLKSGTASVVCLLNNFYPREAKVQWKVDNALQSGNSQESVTEQDSKDSTYSLSSTLTLSKADYEKHKVYACEVTHQGLSSPVTKSFNRGEC
notes: Human IgG
apparent kon (pooled screen) (huIL-18Rβ-HisAvi): 330000 M⁻¹ s⁻¹

B2: P20-V1 (antibody, human IgG1, kappa, V domains shown)
VH: QVQLQESGPGLVKPSETLSLTCTVSGGSINNYYWSWIRQPPGKGLEWIGYIFYSGTTNYNPSLKSRVTISVDTSKNQFSLKLSSVTAADTAVYYCARDVGIAARNSYYYVMDVWGQGTTVTVSS
VL: AIQLTQSPSSLSASVGDRVTITCRASQGISSALAWYQQKPGKAPKFLIYEASSLESGVPSRFSGSGSGTDFTLTISSLQPEDFATYYCQQFNSYPITFGQGTRLEIKR
notes: Variant of P20
Average IC50, IFNg, Crohn's disease LPLs, IL-18+IL-12 (human IL-18Rβ on cells): 18.3 nM
Average IC50, IFNg, healthy (non-IBD) LPLs, IL-18+IL-12 (human IL-18Rβ on cells): 39.8 nM
Average IC50, IFNg, ulcerative colitis LPLs, IL-18+IL-12 (human IL-18Rβ on cells): 16.5 nM
IC50, IFNg, Crohn's disease LPLs, IL-18+IL-12, replicate 1 (human IL-18Rβ on cells): 3.82 nM
IC50, IFNg, Crohn's disease LPLs, IL-18+IL-12, replicate 2 (human IL-18Rβ on cells): 15.4 nM
IC50, IFNg, Crohn's disease LPLs, IL-18+IL-12, replicate 3 (human IL-18Rβ on cells): 89.9 nM
IC50, IFNg, Crohn's disease LPLs, IL-18+IL-12, replicate 4 (human IL-18Rβ on cells): 9.47 nM
IC50, IFNg, Crohn's disease LPLs, IL-18+IL-12, replicate 5 (human IL-18Rβ on cells): 19.6 nM
IC50, IFNg, Crohn's disease LPLs, IL-18+IL-12, replicate 6 (human IL-18Rβ on cells): 5.68 nM
IC50, IFNg, Crohn's disease LPLs, IL-18+IL-12, replicate 7 (human IL-18Rβ on cells): 0.9 nM
IC50, IFNg, Crohn's disease LPLs, IL-18+IL-12, replicate 8 (human IL-18Rβ on cells): 1.33 nM
IC50, IFNg, healthy (non-IBD) LPLs, IL-18+IL-12, replicate 1 (human IL-18Rβ on cells): 12.8 nM
IC50, IFNg, healthy (non-IBD) LPLs, IL-18+IL-12, replicate 2 (human IL-18Rβ on cells): 9.57 nM
IC50, IFNg, healthy (non-IBD) LPLs, IL-18+IL-12, replicate 3 (human IL-18Rβ on cells): 44.8 nM
IC50, IFNg, healthy (non-IBD) LPLs, IL-18+IL-12, replicate 4 (human IL-18Rβ on cells): 132 nM
IC50, IFNg, healthy (non-IBD) LPLs, IL-18+IL-12, replicate 5 (human IL-18Rβ on cells): 0.0116 nM
IC50, IFNg, ulcerative colitis LPLs, IL-18+IL-12, replicate 1 (human IL-18Rβ on cells): 34.4 nM
IC50, IFNg, ulcerative colitis LPLs, IL-18+IL-12, replicate 2 (human IL-18Rβ on cells): 10.8 nM
IC50, IFNg, ulcerative colitis LPLs, IL-18+IL-12, replicate 3 (human IL-18Rβ on cells): 10.3 nM
IC50, IFNg, ulcerative colitis LPLs, IL-18+IL-12, replicate 4 (human IL-18Rβ on cells): 2.63 nM
IC50, IFNg, ulcerative colitis LPLs, IL-18+IL-12, replicate 5 (human IL-18Rβ on cells): 0.0024 nM
IC50, IFNg, ulcerative colitis LPLs, IL-18+IL-12, replicate 6 (human IL-18Rβ on cells): 0.402 nM
IC50, IFNg, ulcerative colitis LPLs, IL-18+IL-12, replicate 7 (human IL-18Rβ on cells): 56.7 nM
